This assay has as its system Arabidopsis thaliana T1 plants. The experiment in a line: Topramezone tolerance of transgenic Arabidopsis thaliana T1 plants (pesticide damage grade by bleached leaf area, score, resistance evaluation). It counts as in vivo. The arrangement: score: scale not given here. As to conditions: for Resistance Grade / score / Grade 0 / Grade 1 / Grade 2 / Grade 3: HPPD from Avena sativa source; for Grade 0 / Grade 1 / Grade 2 / Grade 3: number of plants; for Resistance evaluation: HPPD F372G mutants, Table 6. The method, boiled down: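 Eighteen days after sowing, wild-type and HPPD-transgenic T1 Arabidopsis receive a topramezone spray at 1×, 2× or 4× field rate (25–100 g ai/ha) or water. Seven days later each plant is graded by its proportion of bleached leaf area.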

B1: F372K. (protein, listed as Avena sativa)
chain: MPPTPATATGAAAAAVTPEHAARSFPRVVRVNPRSDRFPVLSFHHVELWCADAASAAGRFSFALGAPLAARSDLSTGNSAHASLLLRSGALAFLFTAPYAPPPQEAATAAATASIPSFSADAARTFAAAHGLAVRSVGVRVADAAEAFRVSVAGGARPAFAPADLGHGFGLAEVELYGDVVLRFVSYPDETDLPFLPGFERVSSPGAVDYGLTRFDHVVGNVPEMAPVIDYMKGFLGFHEFAEFTAEDVGTTESGLNSVVLANNSEAVLLPLNEPVHGTKRRSQIQTYLEYHGGPGVQHIALASNDVLRTLREMRARTPMGGFEFMAPPQAKYYEGVRRIAGDVLSEEQIKECQELGVLVDRDDQGVLLQIKTKPVGDRPTFFLEMIQRIGCMEKDEVGQEYQKGGCGGFGKGNFSELFKSIEDYEKSLEVKQSVVAQKS
modifications: AsHPPD Amido Acid Sequence
Take B1: under “topramezone 25 g ai/ha (1x)”, the “Resistance Grade” value is “Moderately resistant”, the score came out at 33, the “Grade 0” value was 0 and the “Grade 1” value came out at 20. In addition, where the note is “topramezone 25 g ai/ha (1x)”, the “Grade 2” value was 0 and the “Grade 3” value is reported as 0. For the same molecule, for the setting “topramezone 50 g ai/ha (2x)”, the “Resistance Grade” value is on record as “Poorly resistant”, the score was found to be 47, the “Grade 0” value is 2 and the “Grade 1” value is given as 8. For the same molecule, under “topramezone 50 g ai/ha (2x)”, the “Grade 2” value is 10 and the “Grade 3” value was 0. Further, where the note is “topramezone 100 g ai/ha (4x)”, the “Resistance Grade” value is “Non-resistant”, the score was 90, the “Grade 0” value stood at 0 and the “Grade 1” value is 0. Also, for the setting “topramezone 100 g ai/ha (4x)”, the “Grade 2” value turned out to be 6 and the “Grade 3” value came to 14.

B2: SiHPPDm-F372G: Setaria italica HPPD mutant F372G, SEQ ID NO: 307 (protein)
chain: MPPTPTPAAAAPGAAAAPAAGDQAAFRLVGHRGFVRVNPRSDRFHTLSFHHVELWCADATSAAGRFSFGLGAPLAARSDLSTGNSAHASLLLRSGSLAFLFTAPYAHGVDAATASLPSFSAPAARSFAADHGLAVRAIGLRVADAEDAFRASVAAGARPAFKPVELGLGFRLAEVELYGDVVLRYVSYPDAEDAPFLPGFENVNNPGALNYGLRRFDHIVGNVPELAPVAAYVAGFTGFHEFAEFTAEDVGTAESGLNSMVLANNSETVLIPLNEPVHGTKRRSQIQTFLDHNGGPGVQHIALASDDVLRTLREMQARSAMGGFEFMAAPPPDYYEGVRRRAGDVLSEAQIKECQELGVLVDRDDQGVLLQIGTKPVGDRQTLFLEIIQRIGCMEKDEQGQEYQKGGCGGFGKGNFSQLFKSIEDYEKSLESKQAAAVQGS
modifications: SiHPPDm-F372G Amino Acid Sequence
On to B2, for which the Resistance evaluation result by setting is: (topramezone 25 g ai/ha (1x)) “Moderately resistant”; (topramezone 100 g ai/ha (4x)) “Poorly resistant”.

B3: F372 deletion (protein, listed as Avena sativa)
chain: MPPTPATATGAAAAAVTPEHAARSFPRVVRVNPRSDRFPVLSFHHVELWCADAASAAGRFSFALGAPLAARSDLSTGNSAHASLLLRSGALAFLFTAPYAPPPQEAATAAATASIPSFSADAARTFAAAHGLAVRSVGVRVADAAEAFRVSVAGGARPAFAPADLGHGFGLAEVELYGDVVLRFVSYPDETDLPFLPGFERVSSPGAVDYGLTRFDHVVGNVPEMAPVIDYMKGFLGFHEFAEFTAEDVGTTESGLNSVVLANNSEAVLLPLNEPVHGTKRRSQIQTYLEYHGGPGVQHIALASNDVLRTLREMRARTPMGGFEFMAPPQAKYYEGVRRIAGDVLSEEQIKECQELGVLVDRDDQGVLLQITKPVGDRPTFFLEMIQRIGCMEKDEVGQEYQKGGCGGFGKGNFSELFKSIEDYEKSLEVKQSVVAQKS
modifications: AsHPPD Amido Acid Sequence
For B3, where the note is “topramezone 25 g ai/ha (1x)”, the “Resistance Grade” value is “Highly resistant”, the score came out at 0, the “Grade 0” value is on record as 20 and the “Grade 1” value is listed as 0. In addition, for the setting “topramezone 25 g ai/ha (1x)”, the “Grade 2” value is 0 and the “Grade 3” value stood at 0. For the same molecule, for the setting “topramezone 50 g ai/ha (2x)”, the “Resistance Grade” value is “Highly resistant”, the score is 0, the “Grade 0” value is 20 and the “Grade 1” value was 0. Moreover, for the setting “topramezone 50 g ai/ha (2x)”, the “Grade 2” value was determined as 0 and the “Grade 3” value worked out at 0. Under “topramezone 100 g ai/ha (4x)”, the “Resistance Grade” value is “Highly resistant”, the score is 3, the “Grade 0” value came to 18 and the “Grade 1” value came out at 2. Also, under “topramezone 100 g ai/ha (4x)”, the “Grade 2” value is 0 and the “Grade 3” value is 0.

B4: SbHPPDm-F372G: Sorghum bicolor HPPD mutant F372G, SEQ ID NO: 309 (protein)
chain: MPPTPTTAAATGAAVAAASAEQAAFRLVGHRNFVRVNPRSDRFHTLAFHHVELWCADAASAAGRFSFGLGAPLAARSDLSTGNTAHASLLLRSGALAFLFTAPYAHGADAATASLPSFSAAEARRFAADHGLAVRAVALRVADAEDAFRASVAAGARPAFEPVELGLGFRLAEVELYGDVVLRYVSYPDDADASFLPGFVGVTSPGAADYGLRRFDHIVGNVPELAPAAAYFAGFTGFHEFAEFTAEDVGTTESGLNSMVLANNAENVLLPLNEPVHGTKRRSQIQTYLDHHGGPGVQHMALASDDVLRTLREMQARSAMGGFEFMAPPAPEYYDGVRRRAGDVLTEAQIKECQELGVLVDRDDQGVLLQIGTKPVGDRPTLFLEIIQRIGCMEKDEKGQEYQKGGCGGFGKGNFSQLFKSIEDYEKSLEAKQAAAAQGS
modifications: SbHPPDm-F372G Amino Acid Sequence
Regarding B4, the Resistance evaluation result by setting is: (topramezone 25 g ai/ha (1x)) “Moderately resistant”; (topramezone 100 g ai/ha (4x)) “Non-resistant”.

B5: BdHPPDm-F372G: Brachypodium distachyon HPPD mutant F372G, SEQ ID NO: 303 (protein)
chain: MPPPATTAAPAAAAVTPEHARPPRRVARVNPRSDRFSALSFHHVELWCADAASAAGRFSFALGAPPAARSDLSTGNSAHASILLRSGSLAFLFTAPYAPSPASDSAASIPSFSASAARQFTADHGGLAVRAVALRVSSASDAFHASVSAGARPSFPPADLGQGFALAEVELYGDVVLRFISHPDENTEIPFLPGFESVSNPGASTYGLTRFDHVVGNVPSLAPVAAYIAGFTGFHEFAEFTAEDVGTADSGLNSVVLANNSERVLLPLNEPVHGTKRRSQIQTYLDHHGGPGVQHIALASDDVLRTLREMRARSAMGGFEFLAPPPPNYYDGVRRRAGDVLSEAQIKECQELGVLVDRDDQGVLLQIGTKPVGDRPTLFLEMIQRIGCMEKDEIGQEQQKGGCGGFGKGNFSELFRSIEEYEKSLEAKQSAVVQES
modifications: BdHPPDm-F372G Amino Acid Sequence
B5: the Resistance evaluation entry is listed as “Highly resistant” (topramezone 25 g ai/ha (1x)) and “Moderately resistant” (topramezone 100 g ai/ha (4x)).

B6: HvHPPDm-F372G: Hordeum vulgare HPPD mutant F372G, SEQ ID NO: 305 (protein)
chain: MPPTPTTPAATGAAAAVTPEHARPHRMVRFNPRSDRFHTLSFHHVEFWCADAASAAGRFAFALGAPLAARSDLSTGNSAHASQLLRSGSLAFLFTAPYANGCDAATASLPSFSADAARRFSADHGIAVRSVALRVADAAEAFRASRRRGARPAFAPVDLGRGFAFAEVELYGDVVLRFVSHPDGTDVPFLPGFEGVTNPDAVDYGLTRFDHVVGNVPELAPAAAYIAGFTGFHEFAEFTAEDVGTTESGLNSVVLANNSEGVLLPLNEPVHGTKRRSQIQTFLEHHGGPGVQHIAVASSDVLRTLRKMRARSAMGGFDFLPPPLPKYYEGVRRLAGDVLSEAQIKECQELGVLVDRDDQGVLLQIGTKPVGDRPTLFLEMIQRIGCMEKDERGEEYQKGGCGGFGKGNFSELFKSIEDYEKSLEAKQSAAVQGS
modifications: HvHPPDm-F372G Amino Acid Sequence
B6: the Resistance evaluation entry reads like this: (topramezone 25 g ai/ha (1x)) “Highly resistant”; (topramezone 100 g ai/ha (4x)) “Poorly resistant”.
